The source of these data is patent US20120231006A1 (Amgen, published 2012).

Holding throughout (parameters): concentration or dose not given beside the values
Assay [1] deals with T1, mOrai1-hOrai1 ECL2 (…) protein (human/mouse chimera, UniProt Q8BWG9 1-304 (mouse entry)).
T1 construct: also called Ch
Nature of the assay: FACS, 293EBNA. The source says: (§1) FIG. 16A-D illustrates the results of FACS analysis showing binding to the indicated mOrai1-hOrai1 ECL2 chimeric mutants expressed on the surface of HEK-293-EBNA cells. Transfected cells were stained first with recombinant monoclonal antibodies then counter-stained with a secondary phycoerythrin-labeled goat (“Gt”) anti-human (“Hu”) IgG F(ab′)₂ antibody fragment and visualized using FACS. In FIG. 16B and FIG. 16D, The values of Relative Fluorescence Intensity as Percent of Control (RFI-POC) are calculated from the relative fluorescence intensity geometric mean (Geo Mean). The geometric mean is an average calculated by multiplying a series of numbers and taking the nth root where n is the number of numbers in the series. It is a statistical average of a set of transformed numbers often used to represent a central tendency in a highly variable data set that minimizes the effects of extreme values.
(§2) Table 11A and Table 11B feature a schematic representation of the POC data from FIG. 16B and FIG. 16D, respectively, where the binding results are recorded as (+++) denoting binding POC from 40% to 100%, (++) for POC of 5% to less than 40%, (+) for POC from 1% to less than 5% and (−) as lack of binding with POC less than 1%.
A general note: A flow cytometer gives signals particle by particle.
T1 sequence (Q8BWG9 other isoform, or with tags, fused parts or gaps): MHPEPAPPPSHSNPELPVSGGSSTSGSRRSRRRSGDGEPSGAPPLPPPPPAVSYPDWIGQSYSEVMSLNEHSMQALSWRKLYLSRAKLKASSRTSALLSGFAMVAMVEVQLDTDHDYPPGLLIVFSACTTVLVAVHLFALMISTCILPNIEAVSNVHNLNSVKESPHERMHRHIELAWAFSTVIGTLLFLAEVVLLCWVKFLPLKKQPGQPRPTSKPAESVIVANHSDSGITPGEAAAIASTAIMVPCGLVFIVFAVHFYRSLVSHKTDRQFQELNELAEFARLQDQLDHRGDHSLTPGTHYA

In assay [2] the target is T2, mOrai1-hOrai1 ECL2 (…) protein (human/mouse chimera, UniProt Q8BWG9 1-304 (mouse entry)).
T2 construct: also called Ch
Nature of the assay: FACS, 293EBNA.
Excerpt: as §1, §2
This is another data set of the same source.
T2 sequence (Q8BWG9 other isoform, or with tags, fused parts or gaps): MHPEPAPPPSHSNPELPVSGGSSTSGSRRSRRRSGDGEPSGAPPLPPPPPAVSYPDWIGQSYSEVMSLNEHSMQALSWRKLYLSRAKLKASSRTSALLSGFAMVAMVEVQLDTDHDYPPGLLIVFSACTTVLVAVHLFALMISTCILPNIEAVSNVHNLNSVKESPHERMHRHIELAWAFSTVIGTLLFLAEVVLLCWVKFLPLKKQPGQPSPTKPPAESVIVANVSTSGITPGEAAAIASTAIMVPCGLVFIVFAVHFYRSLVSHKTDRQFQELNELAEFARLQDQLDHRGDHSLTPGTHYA

The target of assay [3] is T3, mOrai1-hOrai1 ECL2 (KPPAE) protein (human/mouse chimera, UniProt Q8BWG9 1-304 (mouse entry)).
T3 construct: also called Ch
The assay can be described thus: FACS, 293EBNA.
Excerpt: as §1, §2

The target in assay [4] is T4, hOrai1-mOrai1 ECL2 chimeric protein (human/mouse chimera, UniProt Q96D31 1-301).
T4 construct: human Orai1 with mouse ECL2; also called Ch
The assay can be described thus: FACS, 293EBNA.
Excerpt: as §1, §2

Assay [5] has as its target T5, mOrai1-hOrai1 ECL2 (SPTKPPAE) protein (human/mouse chimera, UniProt Q8BWG9 1-304 (mouse entry)).
T5 construct: also called Ch
Nature of the assay: FACS, 293EBNA.
Excerpt: as §1, §2

In assay [6] the target is T6, mOrai1-hOrai1 ECL2 (AESVIV) protein (human/mouse chimera, UniProt Q8BWG9 1-304 (mouse entry)).
T6 construct: also called Ch
The assay can be described thus: FACS, 293EBNA.
Excerpt: as §1, §2

Assay [7] addresses T7, mOrai1-hOrai1 ECL2 (…) protein (human/mouse chimera, UniProt Q8BWG9 1-304 (mouse entry)).
T7 construct: also called Ch
Nature of the assay: FACS, 293EBNA.
Excerpt: as §1, §2
The source holds these as a separate data set.
T7 sequence (Q8BWG9 other isoform, or with tags, fused parts or gaps): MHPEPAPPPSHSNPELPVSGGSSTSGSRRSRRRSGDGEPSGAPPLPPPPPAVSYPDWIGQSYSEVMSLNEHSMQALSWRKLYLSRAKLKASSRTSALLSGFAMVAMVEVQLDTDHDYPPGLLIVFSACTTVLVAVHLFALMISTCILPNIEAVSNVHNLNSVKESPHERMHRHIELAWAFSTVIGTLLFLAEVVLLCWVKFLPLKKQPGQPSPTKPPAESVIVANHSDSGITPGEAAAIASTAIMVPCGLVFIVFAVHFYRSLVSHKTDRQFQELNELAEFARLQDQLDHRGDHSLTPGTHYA

In assay [8] the target is T8, mOrai1-hOrai1 ECL2 (…) protein (human/mouse chimera, UniProt Q8BWG9 1-304 (mouse entry)).
T8 construct: also called Ch
Nature of the assay: FACS, 293EBNA.
Excerpt: as §1, §2
This is another data set of the same source.
T8 sequence (Q8BWG9 other isoform, or with tags, fused parts or gaps): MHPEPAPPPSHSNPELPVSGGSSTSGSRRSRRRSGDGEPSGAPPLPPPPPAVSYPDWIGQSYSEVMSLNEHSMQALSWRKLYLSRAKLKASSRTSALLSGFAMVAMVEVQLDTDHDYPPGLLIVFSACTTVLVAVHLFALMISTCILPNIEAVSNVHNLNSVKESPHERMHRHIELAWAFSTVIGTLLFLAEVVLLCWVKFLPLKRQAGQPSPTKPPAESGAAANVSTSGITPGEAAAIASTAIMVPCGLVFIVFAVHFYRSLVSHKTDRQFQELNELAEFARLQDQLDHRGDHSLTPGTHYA

Assay [9] concerns the target T9, hOrai1-mOrai1 ECL2 (…) protein (human/mouse chimera, UniProt Q96D31 1-301).
T9 construct: also called Ch
The assay can be described thus: FACS, 293EBNA, RFI-POC grade.
T9 sequence (Q96D31 other isoform, or with tags, fused parts or gaps): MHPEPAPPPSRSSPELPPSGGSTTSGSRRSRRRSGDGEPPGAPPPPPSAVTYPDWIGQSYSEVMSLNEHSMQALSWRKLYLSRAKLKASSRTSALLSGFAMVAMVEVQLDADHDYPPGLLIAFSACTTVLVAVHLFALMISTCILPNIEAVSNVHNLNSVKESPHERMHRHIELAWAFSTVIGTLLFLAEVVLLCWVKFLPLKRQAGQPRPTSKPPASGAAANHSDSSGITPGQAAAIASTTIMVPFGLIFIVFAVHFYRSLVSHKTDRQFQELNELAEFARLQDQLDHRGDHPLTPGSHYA

In assay [10] the target is T10, hOrai1-mOrai1 ECL2 (…) protein (human/mouse chimera, UniProt Q96D31 1-301).
T10 construct: also called Ch
The assay can be described thus: FACS, 293EBNA, RFI-POC grade. The source holds these as a separate data set.
T10 sequence (Q96D31 other isoform, or with tags, fused parts or gaps): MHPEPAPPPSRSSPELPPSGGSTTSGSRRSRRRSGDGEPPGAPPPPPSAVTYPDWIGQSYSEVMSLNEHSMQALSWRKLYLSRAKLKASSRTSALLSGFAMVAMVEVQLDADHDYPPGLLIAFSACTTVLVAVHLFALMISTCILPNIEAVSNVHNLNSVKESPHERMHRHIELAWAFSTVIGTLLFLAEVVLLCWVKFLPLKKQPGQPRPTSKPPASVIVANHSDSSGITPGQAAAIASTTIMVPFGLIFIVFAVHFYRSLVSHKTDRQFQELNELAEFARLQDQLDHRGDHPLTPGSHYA

For assay [11], the target named is T11, mOrai1-hOrai1 ECL2 chimeric protein (human/mouse chimera, UniProt Q8BWG9 1-304 (mouse entry)).
T11 construct: mouse Orai1 with human ECL2; also called Ch
Nature of the assay: FACS, 293EBNA, RFI-POC grade.

Assay [12] addresses T12, hOrai1-mOrai1 ECL2 (SKPPA) protein (human/mouse chimera, UniProt Q96D31 1-301).
T12 construct: also called Ch
Nature of the assay: FACS, 293EBNA, RFI-POC grade.

In assay [13] the target is T13, hOrai1-mOrai1 ECL2 (RPTSKPPA) protein (human/mouse chimera, UniProt Q96D31 1-301).
T13 construct: also called Ch
Nature of the assay: FACS, 293EBNA, RFI-POC grade.

The target in assay [14] is T14, hOrai1-mOrai1 ECL2 (…) protein (human/mouse chimera, UniProt Q96D31 1-301).
T14 construct: also called Ch
Nature of the assay: FACS, 293EBNA, RFI-POC grade. The source holds these as a separate data set.

For assay [15], the target named is T15, hOrai1-mOrai1 ECL2 (VST) protein (human/mouse chimera, UniProt Q96D31 1-301).
T15 construct: also called Ch
The assay can be described thus: FACS, 293EBNA. The source says: (§3) FIG. 17A-D illustrates the results of FACS analysis showing binding to the indicated mOrai1-hOrai1 ECL2 chimeric mutants expressed on the surface of HEK-293-EBNA cells. Transfected cells were stained first with recombinant monoclonal antibodies then counter-stained with a secondary phycoerythrin-labeled goat (“Gt”) anti-human (“Hu”) IgG F(ab′)₂ antibody fragment and visualized using FACS.
(§4) Representative results of FACS analysis of binding to the mutant hOrai1-mOrai1 ECL2 chimera described above by exemplary anti-hOrai1 antibodies of the present invention are shown in FIG. 17A-D, Table 10A and Table 10B below. Table 10A (Campaign 1) and Table 10B (Campaign 2) show the gain in binding ability of exemplary monoclonal antibodies to hOrai 1-mOrai 1 ECL2 chimera mutants as determined by FACS.

For assay [16], the target named is T16, hOrai1-mOrai1 ECL2 (AANVST) protein (human/mouse chimera, UniProt Q96D31 1-301).
T16 construct: also called Ch
The assay can be described thus: FACS, 293EBNA.
Excerpt: as §3, §4

Assay [17] concerns the target T17, hOrai1-mOrai1 ECL2 (GAA) protein (human/mouse chimera, UniProt Q96D31 1-301).
T17 construct: also called Ch
The assay can be described thus: FACS, 293EBNA.
Excerpt: as §3, §4

Assay [18] addresses T18, hOrai1-mOrai1 ECL2 (…) protein (human/mouse chimera, UniProt Q96D31 1-301).
T18 construct: also called Ch
Nature of the assay: FACS, 293EBNA.
Excerpt: as §3, §4
T18 sequence (Q96D31 other isoform, or with tags, fused parts or gaps): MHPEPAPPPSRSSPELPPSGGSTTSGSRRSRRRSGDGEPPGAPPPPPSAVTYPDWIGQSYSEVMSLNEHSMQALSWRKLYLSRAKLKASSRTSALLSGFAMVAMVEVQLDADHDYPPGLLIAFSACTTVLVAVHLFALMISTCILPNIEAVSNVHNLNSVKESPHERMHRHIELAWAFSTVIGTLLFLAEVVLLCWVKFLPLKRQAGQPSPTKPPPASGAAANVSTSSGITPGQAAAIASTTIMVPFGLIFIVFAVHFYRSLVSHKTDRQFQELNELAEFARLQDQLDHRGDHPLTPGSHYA

In assay [19] the target is T4, hOrai1-mOrai1 ECL2 chimeric protein. The assay can be described thus: FACS, 293EBNA.
Excerpt: as §3, §4
The source holds these as a separate data set.

Assay [20] addresses T19, hOrai1-mOrai1 ECL2 (PASGAA) protein (human/mouse chimera, UniProt Q96D31 1-301).
T19 construct: also called Ch
Nature of the assay: FACS, 293EBNA.
Excerpt: as §3, §4

T16 sequence (Q96D31 other isoform, or with tags, fused parts or gaps): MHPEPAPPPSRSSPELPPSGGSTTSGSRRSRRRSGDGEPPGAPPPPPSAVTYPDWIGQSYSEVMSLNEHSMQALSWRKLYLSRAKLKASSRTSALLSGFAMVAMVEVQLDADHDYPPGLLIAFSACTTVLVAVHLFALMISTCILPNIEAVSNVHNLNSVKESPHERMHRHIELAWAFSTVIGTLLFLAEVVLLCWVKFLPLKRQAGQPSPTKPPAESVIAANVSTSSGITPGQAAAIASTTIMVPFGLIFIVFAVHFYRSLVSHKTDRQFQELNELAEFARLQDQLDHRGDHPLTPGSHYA
T11 sequence (Q8BWG9 other isoform, or with tags, fused parts or gaps mutant): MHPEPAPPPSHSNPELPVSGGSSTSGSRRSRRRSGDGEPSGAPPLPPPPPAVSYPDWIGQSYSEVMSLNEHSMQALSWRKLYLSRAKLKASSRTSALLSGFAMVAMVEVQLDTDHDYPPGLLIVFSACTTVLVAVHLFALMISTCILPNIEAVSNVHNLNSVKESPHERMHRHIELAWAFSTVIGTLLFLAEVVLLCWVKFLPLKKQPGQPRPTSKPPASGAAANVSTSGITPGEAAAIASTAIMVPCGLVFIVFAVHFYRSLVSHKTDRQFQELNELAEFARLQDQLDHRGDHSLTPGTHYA
T13 sequence (Q96D31 other isoform, or with tags, fused parts or gaps): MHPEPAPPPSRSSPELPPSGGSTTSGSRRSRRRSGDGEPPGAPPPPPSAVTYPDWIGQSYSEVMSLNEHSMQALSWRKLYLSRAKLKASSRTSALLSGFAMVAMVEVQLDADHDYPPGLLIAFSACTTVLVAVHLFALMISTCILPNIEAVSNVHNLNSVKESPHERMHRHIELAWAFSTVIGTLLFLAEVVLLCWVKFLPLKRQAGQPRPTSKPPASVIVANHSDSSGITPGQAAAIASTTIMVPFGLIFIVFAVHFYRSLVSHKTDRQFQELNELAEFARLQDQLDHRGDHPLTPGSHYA
T4 sequence (Q96D31 other isoform, or with tags, fused parts or gaps mutant): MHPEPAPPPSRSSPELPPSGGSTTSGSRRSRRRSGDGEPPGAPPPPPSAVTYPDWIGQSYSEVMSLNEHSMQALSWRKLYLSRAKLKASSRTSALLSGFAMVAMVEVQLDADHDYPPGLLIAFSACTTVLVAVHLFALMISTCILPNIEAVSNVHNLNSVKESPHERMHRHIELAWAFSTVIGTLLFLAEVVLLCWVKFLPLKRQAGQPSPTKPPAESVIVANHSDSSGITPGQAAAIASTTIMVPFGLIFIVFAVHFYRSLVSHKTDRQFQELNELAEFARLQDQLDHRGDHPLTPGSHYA
T15 sequence (Q96D31 other isoform, or with tags, fused parts or gaps): as the sequence (Q96D31 other isoform, or with tags, fused parts or gaps mutant) above, with H224V, D226T counted along it
T12 sequence (Q96D31 other isoform, or with tags, fused parts or gaps): as the sequence (Q96D31 other isoform, or with tags, fused parts or gaps mutant) above, with K213S, P214K, A216P, E217A counted along it
T5 sequence (Q8BWG9 other isoform, or with tags, fused parts or gaps): as the sequence (Q8BWG9 other isoform, or with tags, fused parts or gaps mutant) above, with R212S, S215K, K216P, P218A, A219E counted along it
T6 sequence (Q8BWG9 other isoform, or with tags, fused parts or gaps): as the sequence (Q8BWG9 other isoform, or with tags, fused parts or gaps mutant) above, with P218A, A219E, G221V, A222I, A223V counted along it
T19 sequence (Q96D31 other isoform, or with tags, fused parts or gaps): as the sequence (Q96D31 other isoform, or with tags, fused parts or gaps mutant) above, with A216P, E217A, V219G, I220A, V221A counted along it

B1: mAb 5A4.2 (antibody, human IgG2, lambda, V domains shown)
VH: QVQLVQSGAEVKKPGASVKVSCKASGYTFTDYYMNWVRQAPGQGLEWMGWINPNSGGTKYAQKFQGRVTMTRDTSIRTAYMELSRLRSDDTAVYYCSREYGGNSDWFDPWGQGTLVTVSS
VL: QSVLTQPPSVSGAPGQRVTISCTGSSSNIGAGYDVHWYQQLPGTAPKLLIYGNSNRPSGVPDRFSGSKSGTSASLAITGLQAEDEADYYCQSYDNRLSDSVVIGGGTKLTVQG
notes: fully human IgG2 lambda, Campaign 2
For the molecule B1, the “POC (percent of control, FACS Geo Mean relative to binding to Ch. 1)” value in assay [1], in assay [2], in assay [3], in assay [4], in [5] and in assay [6] was less than 1% in each case. Besides, the “POC (percent of control, FACS Geo Mean relative to binding to Ch. 1)” value in assay [7] and in [8] was less than 1% throughout. For the same molecule, the “percent of control (POC) of FACS Geo Mean” value (shortened to “percent … of FACS Geo Mean”) in assay [9], in [10], in [11], in [12], in assay [13] and in assay [14] was 40 to 100% each time. In addition, the “percent … of FACS Geo Mean” value in assay [15], in [16], in [17], in assay [18], in [19] and in assay [20] was less than 1% in each case.

B2: mAb 5C1.1 (antibody, human IgG2, lambda, V domains shown)
VH: QVQLVQSGAEVKKPGASVKVSCKASGYTFTDYYMNWVRQAPGQGLEWMGWINPNSGGTKYAQKFQGRVTMTRDTSIRTAYMELSRLRSDDTAVYYCAREYGGNSDWFDPWGQGTLVTVSS
VL: QSVLTQPPSVSGAPGQRVTISCTGSSSNIGAGYDVHWYQQLPGTAPKLLIYGNSNRPSGVPDRFSGSKSGTSASLAITGLQAEDEADYYCQSYDNRLSDSVVIGGGTKLAVQG
notes: as for B1
On to B2, for which the “POC (percent of control, FACS Geo Mean relative to binding to Ch. 1)” value in assay [1], in assay [2], in [3], in assay [4], in assay [5] and in [6] was less than 1% in each case. Further, the “POC (percent of control, FACS Geo Mean relative to binding to Ch. 1)” value in assay [7] and in assay [8] was less than 1% throughout. Also, the “percent … of FACS Geo Mean” value in assay [9], in assay [10], in assay [11], in assay [12], in [13] and in [14] was 40 to 100% in each case. The “percent … of FACS Geo Mean” value in assay [15], in assay [16], in assay [17], in assay [18], in assay [19] and in assay [20] was less than 1% in each case.

B3: mAb 5F7.1 (antibody, human IgG2, lambda)
heavy: QVQLVQSGAEVKKPGASVKVPCKASGYTFTDYYINWVRQAPGQGLEWMGWINPNNGGTNYAQKFQGRVTMTRDTSISTAYMELRRLRSDDTAVYYCARERGGYEDWFDPWGQGTLVTVSSASTKGPSVFPLAPCSRSTSESTAALGCLVKDYFPEPVTVSWNSGALTSGVHTFPAVLQSSGLYSLSSVVTVPSSNFGTQTYTCNVDHKPSNTKVDKTVERKCCVECPPCPAPPVAGPSVFLFPPKPKDTLMISRTPEVTCVVVDVSHEDPEVQFNWYVDGVEVHNAKTKPREEQFNSTFRVVSVLTVVHQDWLNGKEYKCKVSNKGLPAPIEKTISKTKGQPREPQVYTLPPSREEMTKNQVSLTCLVKGFYPSDIAVEWESNGQPENNYKTTPPMLDSDGSFFLYSKLTVDKSRWQQGNVFSCSVMHEALHNHYTQKSLSLSPGK
light: QSVLTQPPSVSGAPGQRVTISCTGSSSNIGAGFDVHWYQQLPVTAPKLLIYGNRNRPSGVPARFSGSKSGTSASLAITGLQAEDEAVYYCQSYDSSLTVFGGGTKLTVLGQPKANPTVTLFPPSSEELQANKATLVCLISDFYPGAVTVAWKADGSPVKAGVETTKPSKQSNNKYAASSYLSLTPEQWKSHRSYSCQVTHEGSTVEKTVAPTECS
notes: as for B1
For the molecule B3, the “POC (percent of control, FACS Geo Mean relative to binding to Ch. 1)” value in assay [1], in assay [2], in [3], in assay [4], in assay [5] and in [6] was less than 1% throughout. Also, the “POC (percent of control, FACS Geo Mean relative to binding to Ch. 1)” value in assay [7] and in [8] was less than 1% throughout. Moreover, the “percent … of FACS Geo Mean” value in assay [9], in assay [10], in [11], in assay [12], in [13] and in [14] was 40 to 100% each time. For the same molecule, the “percent … of FACS Geo Mean” value in assay [15], in [16], in assay [17], in [18], in [19] and in assay [20] was less than 1% in each case.
